# Experiment: soluble on expression in E. coli; label from the status in PepcDB or PDB records
row,Sequence,soluble on expression in E. coli
1,MGSDKIHHHHHHMKIKVVLSGYGTVGREFIKLLHEKCSYIYETYGIELVVSGVLGRNVAIHNEDGLSIHNLLMYGSSSAAIEKYIEYHPEERATDNISGTVLVESTVTNLKDGNPGKQYIKQAIEKQMDIVAISKGALVTNWREINEAAKIANVRIRYSGATAAALPTLDIGQFSLAGCHVKKIEGILNGTTNYILTKMNEEDITFEEALKEAQRKGIAETNPILDVSGSDSACKLLLLTNSLMGTEHMLTDIYIKGIEHVTKQQIRNAKEQNKFIKLIASAYKDQDGKVTLKVEPYEIDKDHPLANVNGTEKGITFFTDTMGQVTTIGGASNPRGAAAAALKDIINLYRKDLSLSNR,not soluble
2,MENALSTLPLTAPSAELPRFGPPHIPIREDWLDRQREEILDPGLPIVDAHHHLWDRPGQRYMFEDFLRDTGSGHNIRATVYVQCRSMYRLDGPAAMRPVGEAEFVNGVAARSASGMYGPMRACAAIVGYADLTLGAAVEEVLHALVRAAPDRLRGVRNMTAAHASPAVAPGFGRVPEGLLSDARFRAGYARLAPLGLSYDVWAFHSQLAEVLDLARAYPDTALIVNHAGGPLGIGPYAGQRDAVMRDWDHHLRALADCPNVALKLGGLGMHISGLRFHEQDMPPSSEALAEAWRPWIHTAIERFGAQRCMFESNFPVDKGMAAYAAVWNAFKRLARGATPRERQALFAGTAARLYRLPASVLALEHHHHHH,not soluble
3,GPGSMPSLNFFLADESRLESSRDDSTAEVAHFTPSQHALRRILISTAMANKSLEYVQGMNEYVAHLLYAFAKGKASNLTASVEADTFFCFQTLLSYLGDDFCRSFDFDAACGLTSTMRLFDNVLRFFDPSLFQHLEYLGINAEHYALRWIMLLFTQEFNIADGLRVWDFLLSFGDEIRNAAFFVAAAMCHHLRSSILSGEAMSDVLPLLQEYPAGDVNLFLRIALKWIVKFDFDLLHELKPLSPEGVQALRCSRGLEGGMNFVQVMQSWVPSIF,not soluble
4,MPLSPLDIHNKEFTRGFRGYDEDEVNDFLDQIIKDYEQVIKEKKRIEDTLNNSEERLGHFTNIEETLNKSLIVAQTAAEEVKASAEKEAKLIIREAEKNADRILSDSLSKARKIAIEIEDLKRQSKVFRERLRMLVEAQMDLIKSEDWQQMMAYDVDATELASIKEVESAESEER,not soluble
5,MTKLAVVGATGLVGTKMLETLNRKNIPFDELVLFSSARSAGQEVEFQEKTYTVQELTDARASEHFDYVLMSAGGGTSEHFAPLFEKAGAIVIDNSSQWRMAEDIDLIVPEVNEPTFTRGIIANPNCSTIQSVVPLKVLQDAYGLKRVAYTTYQAVSGSGMKGKKDLAEGVNGKAPEAYPHPIYNNVLPHIDVFLENGYTKEEQKMIDETRKILNAPDLKVTATCARVPVQDSHSVEIDVTLDKETTAEDIKALFDQDDRVVLVDNPENNEYPMAINSTNKDEVFVGRIRRDDSLENTFHVWCTSDNLLKGAALNAVQVLEQVMRLKGAN,soluble
6,MLEMLEYNHYQVQTHLENPTKYHIQQAQRQQVKQYLSTTLANKHANQVLSLPCPNQPGDHVMPPVPGSSAPNSPMAMLTLNSNCEKEGFYKFEEQNRAESECPGMNTHSRASCMQMDDVIDDIISLESSYNEEILGLMDPALQMANTLPVSGNLIDLYGNQGLPPPGLTISNSCPANLPNIKRELTESEARALAKERQKKDNHNLIERRRRFNINDRIKELGTLIPKSNDPDMRWNKGTILKASVDYIRKLQREQQRAKELENRQKKLEHANRHLLLRIQELEMQARAHGLSLIPSTGLCSPDLVNRIIKQEPVLENCSQDLLQHHADLTCTTTLDLTDGTITFNNNLGTGTEANQAYSVPTKMGSKLEDILMDDTLSPVGVTDPLLSSVSPGASKTSSRRSSMSMEETEHTC,soluble
7,MGSDKIHHHHHHMMIMLDPFSEKAKELLKGFGSINDFMDAIPKIVSVDDVIERIRVVKNEKLIDKFLDQDNVMDLAQFYALLGALSYSPYGIELELVKKANLIIYSERLKRKKEIKPEEISIDVSTAIEFPTEDVRKIERVYGKIPEYTMKISDFLDLVPDEKLANYYIYEGRVYLKREDLIRIWSKAFERNVERGVNMLYEIRDELPEFYRKVLGEIQAFAEEEFGRKFGEIQGGKLRPEFFPPCIKNALKGVPQGIRNYAITVLLTSFLSYARICPNPPRRNVRVKDCIKDIRVITEEILPIIIEAANRCSPPLFEDQPNEIKNIWYHLGFGYTANPSLEDSGNSTWYFPPNCEKIRANAPQLCTPDKHCKYIRNPLTYYLRRLYLEGRRNAPKRGNKRGKKELLHQ,not soluble
8,PNRLAEAGSRYLRQHSCDPVDWMPWGAEAFEKARRLDKPVFVSVGYSSCHWCHVMQRESFSDPMVAEVLNRAFVMVKVDREERPDVDTLLMRYCAIASGSCGWPLNVLLTPDGKPFYVATYLPKESLVALAVSLERVWRERRAEVLEVAERAGGLLEQHRLAFTPGR,not soluble
